Measurements from the nanobody polyreactivity screen of Harvey et al. (2022).

Assay: yeast display, Sf9 membrane polyspecificity reagent, FACS + sequencing; frameworks hold sequencing errors
How it was run: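 Galactose induction of a Saccharomyces cerevisiae BJ5465 synthetic nanobody display library ran 36–48 hours. The cells were then stained for 1 hour at 4 °C with 10% biotinylated, detergent-solubilized Sf9 membrane reagent, pulled down on streptavidin microbeads and FACS-sorted into low and high (top ~1%) gates on expression and reagent-binding fluorescence. Labels for polyreactivity follow the gate of origin.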

Sequence	polyreactivity (PSR sort gate)
QVQLVESGGGLVQAGGSLRLSCAASGRIFKYYAMGWYRQAPWKERELVDTIRRSGGSTYYADSVKGRFTISRDNAKNTVYLQMNSLKPEDTAVYYCNARYLFLQAWLRPYRSDYWGQVTQVTVSS	high polyreactivity
QVQLVESGGGLVQAGGSLRLSCAASGSTFVYNAMGWYRQAPGKEREFVAVINWSGGRTYADSVKGRFTISRDNAKNTVYLQMISLKPEDTEVYYCIARRRTGYRPAMDYWGQGTEVTVSS	high polyreactivity
QVQLVESGGGLVQAGGSLRLSCAASGFTFNSYDMYWVRQAPGKGLEWVSSINTNGGSTYYADSVKGRFTISRDNAKNTVYLQMNSLKPEDTAVYYCAADGDTVGHSYRYDYWGQGTQVTVSS	low polyreactivity
QVQLVESGGGLVQAGGSLRLSCAAPGSTFGRYAMGWYRQAPGKERELVAAISKSGGSTYYADSVKGRFTISRDNAKNTVYLQMNSLKPEDTAVYYCAATTTRYSYEYWGQGTQVTVSS	low polyreactivity
QVHLVESGGGIVQAGGSLRLSCAASVRTFQYYAMGWYRKAPGKEREFVAAITRTGARTYYADSVKGRFTISRDNAKNTVYLQMNSLKPEDTAVYYCAKSLTFYSWRDYGYWGQGTQVTVSS	high polyreactivity
QVQLVESGGGLVQAGGSLRLSCAASGRIFYYYAMGWYRQAPGKERELVAAITWSGGSTYYADSVKGRFTISRDNAKNTVYLQMNSLKPEDTAVYYCAAEWAYWDEWSGDYYLLGYWGQGTQVTVSS	high polyreactivity
QVQLVESGGGLVQAGGSLRLSCAASGSTFGGNAMGWYRQAPGKERELVAAITIGGRTNYADSVKGRFTISRDNAKNTVYLQMNSLKPEDTAVYYCAKDRDQWQDYWGQGTQVTVSS	low polyreactivity
QVQLVESGGGLVQAGGSLRLSCAASGITFYHYAMGWYRQAPGKERELVAAISSDDNTNYADSVKGRFTISRDNEKNTVYLQMNSLNPEVTAVYYCNKRSLKNEPRYDYWGQGTQVTVSS	high polyreactivity
QVQLVESGGGLVQAGGSLRLICAASGSTFARNAMGWYRQAPGKERELVAAITTRGSSTYYADSVKGRFTISRDNAKNTVYLQMNSLKPEDTAVYYCAADSRRSWYWGGYRQTGMGYWGQGTQLTVSS	high polyreactivity
QVQLVESGGGLVQAGGSLRLSCAASGSTFPPYVIGWYRPAPGKERELVAAITWSSGSTYYADSVKGRFTISRDNAKNTVYLQMNSLKPEDTAVYYCAARAYRWGQGTQVTVSS	low polyreactivity
QVQLVESGGGLVQAGGSLRLSCAASGSISVVYDMGWYRQAPGTERELVAAIDWSGGSTYYADSVKGRFTISRDNAKNTVYLQMNSLKPEDTAVYYCAADDKVRYYWGQGTQVTVSS	low polyreactivity
QVQLVESGGGIVQAGGSLRLSCAASGRTFYYAMGWYRQAPGKERELVAAITSSSSTYYADSVKGRFTISRDNAKNTVYLQMNSLKPEDTAVYYCNSADDPYGSPSYGYDYWGQGTQVTVSS	low polyreactivity
QVNLVESGGGLVQAGGSLRLSCAASGRIFRKYAMGWYRQAPGKVREFVAAITVSGDRTYYADSVKGRFTISRDNAKNNVYLQMNSLKPEDTAVYYCATKGYYYPYVTYDYWGQGTQVTVSS	low polyreactivity
QVQLVESGGGLVQAGGSLRLSCAASGSTFRYYAMGWYRQAPGKERELVASITWSGGSTYYADSVKGRFTISRDNAKNTVYLQMNSLNPEDTAVYYCAARQYIGSPPHRRRFDYWGKGTQVTVSS	high polyreactivity
QVQLVESGGGLVQAGGSLRLSCAASGSTFDIYVMGWYRQAPGKEREFVAAITTTTGRTNYADSVKGRFTISRDYAKNTVYLQMNSLKPEDTAVYYCAAYVTWGKLWYGYWGQGTQVTVSS	high polyreactivity
QVQLVESGGGLVQAGGSLRLSCAASGRTNRFYAMGWYRPAPGNERELVAAIRNGGRTNYADSVKGRFTIARDNAKNTVYLQMNSLKPEDTAVYSCAKQPGISYRHYDYWGQGPQVTVSS	high polyreactivity
QVQLVESGGGLVQAGGSLRLSCAASGSTFRYYAMGWYRPAPGKERELVAVISTSGNTYYADSVKGRFTISRDNAKNTVYLQMNSLKPEDTAVYYCAARGVGGQISQEYDYWGQGTQVTVSS	low polyreactivity
QVQLVESGGGLVQAGGSLSLSCAASGRIFYKYAMGWYRQAPGKESELVAAINTSGGRTYYADSVKGRFTISRDNAKNTVYLQMNSLKPEDTAVYYCKAVGSAYTAYDYWGQGTQVTVSS	high polyreactivity
QVQLVESGGCLVQAGCSHRLSCAASGSTFGHNAMGWYRQAPGKERELVAAISWSGGRTSYADSVKGRFTISRDHAKNTVYLQLNSLKPEDTAVYYCAARSWRKGDYWGQGTQVTVSS	high polyreactivity
QVQLVESGGGLVQAGGSLRLSCAASGRIYLYAMGWYRQTPGKERELVAAISYSGGSTYYADSVKGRFTISRDYAKNTVYLQMNCLKPEDTAVYYWASEAGSYWGKGTQVTVSS	high polyreactivity
QVQLVESGGGLVQAGGRLRLSCAASGFTLTRNAMGWYRQAPGKERELVAAISWSGGTTYYADSVKGRFTISRDNAKNTVYLQMNSLKPEDTAVYYCNTASLRAHYYYWGQGTQVTVSS	high polyreactivity
QVQLVESGGGLVQAGGSLRLSCAASGSISAGNAMGWYRQAPGKERELVAAITTSGGSTYYADSVKGRFTISRDNAKNTVYLQMNSLKPEDTAVYYCNVDPRKRSYDYWGQGTQVTVSS	high polyreactivity

Sequence	polyreactivity (PSR sort gate)
QVQLVESGGGLVQAGGSLRLSCAASGFTFLYNAMGWYRQAPVKERELVASINSGGSTNYADSVKGRFTISRDNAKNTVYLQMNSLKPEDTAVYYCNAKRHVRKGDYWGLGTQVTVSS	low polyreactivity
QVQLVESGGGLVQAGGSLRLSCAASGIIFYKYSMGWYRQAPGKERELVAAITSGGGRTYYADSVKGRFTISRDNAKITVDLQMNSLKPEDTAVYYCAATRPATYAAYDYWGQGTQVTVSS	high polyreactivity
QVQLVESGGGLVQAGGSLRLSCAASGSIFYWNAMGWYRQAPGKERELVAAINYSGDSTYYADSVKGRFTISRDNAKNTVYLQMNSLKPEDTEVYYCNFDYWGQGTQVTVSS	low polyreactivity
QVQLVESGGGLVQAGGSLRLSCAASGSIFYDNALGWYRQAPGKERELVAAIDDSDRTYYADSVKGRFTISRDNAKNTVYLQMNSLKPEDTAVYYCARDRWKWHYGYDYWGQGTQVTVSS	low polyreactivity
QVQLVESGGGLVQAGGSLRLSCAASGSTFYGYAMGWYRPAPGKERELVAAITIGGRTYYADSVKGRFTISRDNAKNTVYLQMNSLKPEDTAVYYCAAAILRTVPELGSRRTYYYWGQGTQVTVSS	high polyreactivity
QVQLVESGGGLVQAGGSLSLSCAASGSTFYFNAMGWYRQAPGKERELVATIRSGDSTYYADSVKGRFTISRDNAKNTVYLQMNRLKPEDTAVYYCAAVSTYFSSTFTEYDYWGQGTQVTVST	low polyreactivity
HVQLVESGGGLVQAGGSHRLICASSGFTIYYAIAWYRQAPGKESELVASISANGGSTYYADSVKGRFTISRDNAKNTVYLQMNSLKPEDTAVYYCAARGLSGQRRYYWGQGTQVTVSS	high polyreactivity
QVQLVESGGGLVQAGGSLRLSCAASGSIFRSYAMGWYRQAPGKERELVAAISRRGGSTYYADSVKGRFTISRDNAKNTVYLQMNSLKPADTGVYYCAAVRYNSRVSTTPSDMYYWGQGTQVTVSS	low polyreactivity
QVQHVESGGGLVQAGGSLRLSCAASGRTFGGNAMGWYRQAPGKERELVAAISKSGGRTYYADSVKGRFTISRDNAKNTVYLQMNSLKPEDTAVYYCNKVLSVSQAGGFDYWGQGTQVTVSS	high polyreactivity
QVQLVESGGGLVQAGGSLLLSCAASGFTFYGYVMGWYRQAPGKERELVAGITWRGGSTYYADSVKGRFTISRDNAKNTVYLQMNSLKPEDTAVYYCAAKSFRRGTFDYWGQGTQVTVSS	high polyreactivity
QVQLVESGGGLVQAGGSLRLSCAASGIFRQNAMGWYRQAPGKERELVAGISQSGGSTYYADSVKGRFTISRDNAKNTVYLQMNSLKPEDTAVYYCAGVSIWGYDYWGQGTQVTVSS	low polyreactivity
QVQLVESGGGLVHAGGSLRLSCAASGSTFIRNAMGWYRQAPGKERELVAAISSSGGRTYYADSVKGRFTISRDNAKNTVYLQMNSLKPEDTAVYYCAARYVPPWGRRYYYWGQGTQVTVSS	high polyreactivity
QVQLVESGAGLVQAGGSLRLSCAAYGLIFTYNAMGWYRQAPWKERKLVARITSGGNTNYADSVKGRFTISRDYAKNTVYLQMNSLKPEDTAVYYCATCLYWFTNRYGYWGQGTQVTVSS	low polyreactivity
QVQLVESGGGLVQAGGSLRLSCAASGSTFWYYTMGWYRQAPGKERELVATISWRGGRTTYADSVKGRFTISRDNAKNTVYLQMNSLKPEDTAVYYCNAERFPGYGGPSRYLYQEYVYWGQGTQVTVSS	low polyreactivity
QVQLVESGGGLVQAGGSLRLSCAASGSISYEFAMGWYRQAPGKERELVASIDSDGAGTYYADSVKGRFTISRDNAKNTVYLQMNSLKPEDTAVYYGNAEWYYPYYYSRMDYWGQGTQVTVSS	low polyreactivity
QVQLVESGGGLVQAGGRLRLSCAASGFTFNVNALGGYRPAPGKERELVATITWSDGSTRYADSVKGRFTISRDNAKNTVYLQMNSLKPEDTAVYYCATRWSYPYSYRYYYWGQGTQVTVSS	low polyreactivity
QVQLVESCGGLVQAGGRLRLSCAASGRIFYSYAMGWSRQAPGKERELVAAITVSGGSTFYADSVKGRFTISRDNAKNTVYLQMNSLKPEDTAVYYCNAPKRYSTIGYDYWGQGSQVTVSS	high polyreactivity
QVQLVESGGGLVQAGGSLRLSCAASGSNFLRNAMGWYRQAPGKERELVAAIRWNAGSTYYADSVKGRFTISRDNAKNTVYLQMNSLKPEDTAVYFCAADGYYGRGYWIRTLKFDYWGQGTQVTVSS	high polyreactivity
QVQLVETGGGLVQAGGSLRLSCAASGFTFRPYVMGWYRQPPGKERELVAGITWDGDSTYYADSVKGRFTISRDNPKNTVYLQMNSLKPEDTAVYYCAAEDADWVSQYYYWGQGTQVTVSS	high polyreactivity
QVQLVESGGGLVQAGGSLRLSCAASGITFGFYAMGWYRQAPGKERELVASITWRGGSTYYADSVKGRFTISRDNAKNTVYLQMNSLKPEDTAVYYCAAEQYVFRPRAQEITTYDYWGQGTQVTVTS	high polyreactivity
QVQLVESGGGLVQAGGSLRLSCAASGSIFYGYAMGWYRQAPGKERELVAAIRYSDGSTYYADSVKGRFTISRDNAKNTVYLQMNSLKPEDTAVYYCAKKRRNYIGYYYWGQGTQVTVSS	high polyreactivity
